The values below come from patent publication US10077303B2, “Anti-neurotensin antibodies and uses thereof” (INSERM (INSTITUT NATIONAL DE LA SANTÉ ET DE LA RECHERCHE …, priority 2014, dated 2018).

Assay [1] relates to A2780 cells. Put plainly: A2780 ovarian cancer tumor xenograft, cisplatin response. Format: in vivo, NMRI-Nude Foxn1 mice. The method, then:
FIG. 8. […] 3 million A2780 cells were injected into mice. When tumors generated by A2780 reached an average volume of 200 mm^3, mice were randomized into 4 groups. Mice were treated with PBS, or 15 mg/kg NTSp27-7.4 every other day and/or with cisplatin 1 mg/kg day at 1, 3, 5, and 7 days. Results are the mean of 8 to 12 mice performed in two different independent experiments.
A2780 cells (3×10^6) cells were combined with […] and 50 μl […]® (a gelatinous protein mixture), then injected subcutaneously into the right hind leg of 4 week old female NMRI-Nude Foxn1 mice. Treatment started when tumors reached approximately 200 mm3. Tumor volume was calculated every two days by using the following equation: tumor volume (mm3)=4/3×π×(length/2)×(width/2)×(height/2). After treatment, the mice were sacrificed and tumors were fixed in formalin.

The test system of assay [2] is LNM-R cells. The assay can be described thus: cisplatin test, LNM-R tumor xenograft. As to conditions: for day the experiment was stopped because of the large size of the tumors: control group stopped after 21. Format: in vivo, NMRI nu/nu mice. The method, then: (§1) FIG. 6. […] A) LNM-R or R-SI NTSR1 cells (LNM-R expressing sh-RNA for NTSR1) were injected into the left and the right flanks of the mice, respectively; Mice were treated with PBS, or 15 mg/kg NTSp27-7.4 every other day and/or with cisplatin 1 mg/kg day 1, 3, 5, 7, 15, 17, and 19. At day one, 9 and 8 mice were randomized for the size of the LNM-R tumors; reaching approximately 95 mm3 on average. Mice were treated every other day and measured every day. B) Tumor growth rate from day one generated by R-SI NTSR1 cells (right flank).
(§2) Cisplatin test, 1×10^6 LNM-R cells and 1×10^6R-SI NTSR1 were subcutaneously inoculated in NMRI nu/nu mice, LNM-R in the left flank and R-SI NTSR1 in the right flank. When tumors generated by LNM-R reached an average volume of 95 mm^3, mice were randomized in 5 groups of 8 to 10 mice. Group 1 was administered with PBS, group 2 with antibody NTSp27-7.4 (i.p. every other day, 15 mg/kg) for total of 13 times and group 3 with mouse IgG (i.p. every other day, 15 mg/kg). Group 4 was administered with PBS and cisplatin (1 mg/kg at day 1,3 5 7, 15, 17, and 19) and groups 5 with antibody NTSp27-7.4 (i.p. every other day, 15 mg/kg) and cisplatin (1 mg/kg at day 1,3 5 7, 15, 17, and 19). The volume of tumor was measured every other day.

Assay [3] deals with R-SI NTSR1 cells. Put plainly: cisplatin test, R-SI NTSR1 tumor xenograft. Format: in vivo, NMRI nu/nu mice. The method, then:
as §1, §2

For assay [4], the system named is MCF-7 cell overexpressing NTS. The assay can be described thus: invasion test on type I collagen of MCF-7 cells overexpressing NTS (NTS-h). Format: cell-based. As to conditions: NTS-overexpressing clones vs MCF-7; EGF 100 ng/mL; 7 μg antibody. The method, then:
The experiment was repeated twice.
(§3) The cell culture insert (8 μm, Beckton Dickinson®) was coated with type I collagen (100 μl/well, 4×10^2 μg/ml, Sigma®) at 37° C. 24 h before the assay. 1 million MCF, NTS-h, Hep 3B, HepR1a, and HepR2b cells were seeded in the insert with 250 μl of serum free medium in presence or absence of 7 μg antibodies NTSp27-7.4. Outside the insert, 750 μl medium with 10% FCS was added in the well as chemoattractant. After 48 h of incubation, the non-invading cells and collagen are removed from the upper surface of the membrane by scrubbing with a cotton swab. Invading cells (those adhering to the bottom surface of the membrane) were fixed and stained with the Kwif diff stain kit(Thermo®) and the number of stained cells were counted with an inverted microscope at 200× magnification.

Assay [5] relates to LNM-R cells. Put plainly: LNM-R lung cancer tumor xenograft. In kind it is in vivo, NMRI nu/nu mice. The following applies: 15 mg/kg i.p. every other day. The method, then: (§4) FIG. 4. NTSp27-7.4 inhibits experimental tumor growth generated by lung cancer cell lines. A) LNM-R or R-SI NTSR1 cells (LNM-R expressing sh-RNA for NTSR1) were injected into the left and the right flank of the mice, respectively. Here is shown an example of a mouse from each group after 15 days of treatment. B) Tumor growth generated by LNM-R cells (left flank) xenografted into nude mice and treated for 15 days with PBS, or 15 mg/kg NTSp27-7.4. At day one, 10, and 8 mice were randomized on LNM-R tumors size reaching approximately 40 mm3 for control and NTSp27-7.4 group, respectively. Mice were treated every other day and measured every day. C) Tumor growth generated by R-SI NTSR1 cells (right flank) xenografted into the same mice. D and E) Tumor growth rate from day one generated by LNM-R cells (left flank) and R-SI NTSR1 cells (right flank).
(§5) 1×10^6 LNM-R cells and 1×10^6R-SI NTSR1 were subcutaneously inoculated in NMRI nu/nu mice, LNM-R in the left flank and R-SI NTSR1 in the right flank. When tumors generated by LNM-R reached an average volume of 40 mm^3, mice were randomized in 2 groups, then administered antibody NTSpP27-7.4 (i.p. every other day, 15 mg/kg) for total 8 times. PBS was used as the vehicle control. The volume of tumor was measured daily.

Assay [6] deals with R-SI NTSR1 cells. Put plainly: R-SI NTSR1 tumor xenograft (same mice, right flank). Format: in vivo, NMRI nu/nu mice. The following applies: non-expressing NTSR1 tumors, 15 mg/kg. As to the method:
as §4, §5

Assay [7] deals with MDA-MB 231 cells. The assay can be described thus: MDA-MB 231 breast cancer tumor xenograft. The following applies: 15 mg/kg i.p. every other day. In kind it is in vivo, NMRI nu/nu mice. As to the method: (§6) FIG. 5. NTSp27-7.4 inhibits experimental tumor growth generated by breast cancer cell lines. Tumor growth generated by MDA-MB 231 cells (left flank) (A), and MDA Si2 cells (right flank) (B), and treated for 24 days with PBS, or 15 mg/kg […]. At day one, 7, and 6 mice were randomized for the size of MDA-MB231 tumors size; reaching approximately 50 mm3. Mice were treated and measured every other day.
(§7) 3×10^6 MDA-MB 231 cells and 3×10^6 MDA si2 were subcutaneously inoculated in 100 μl of […]® (a gelatinous protein mixture) the left flank and the right flank of the NMRI nu/nu mice, respectively. When tumors generated by MDA reached an average volume of 50 mm^3, mice were randomized in 2 groups, then administered antibody NTSpP27-7.4 (i.p. every other day, 15 mg/kg) for total 12 times. PBS was used as the vehicle control.

Assay [8] relates to Hep 3B, HepR1a, and HepR2b cells. The assay can be described thus: collagen type 1 invasion assay of hepatocellular carcinoma cells. Format: cell-based. As to conditions: Hep-R1a and Hep-R1b; 3.75 μg/ml purified antibody. As to the method: FIG. 3. […] A) Migration in a collagen 1 invasion assay of Hep 3B, HepR1a, and HepR2b cells. Results represent the mean±SEM of 3 experiments. Results are expressed as a % on invasive cells of control cells, Hep3B. […] B) Migration in a collagen type 1 invasion assay of Hep 3B, HepR1a, and HepR2b cells in a presence of 3.75 μg/ml of purified NTSp27-7.4 or mouse IgG. Results represent the mean±SEM of 3 experiments. Results are expressed as a % on invasive cells of respective control cells.
as §3

Assay [9] deals with MDA si2 cells. Put plainly: MDA Si2 tumor xenograft (same mice, right flank). Format: in vivo, NMRI nu/nu mice. As to conditions: MDA Si2 tumors (NTSR1-). The method, then: as §6, §7

`N.N.[Cl][Pt][Cl]` [cisplatin, reference compound]: in assay [1] (cisplatin 1 mg/kg at 1, 3, 5, and 7 days), the “A2780 tumor growth rates as compared to PBS treated mice” value was “slightly but not significantly altered”. The “LNM-R tumor growth rate as compared to PBS treated mice” value in [2] (cisplatin 1 mg/kg day 1,3,5,7,15,17,19, IgG 15 mg/kg every other day) was “not altered”. In addition, the “day the experiment was stopped because of the large size of the tumors” value in [2] is given as 23 days. For the same molecule, in assay [3] (cisplatin 1 mg/kg, growth ratio to D1), the “R-SI NTSR1 tumor size” value is “decreased”.

B1: NTSp27-7.4: NTS neutralizing monoclonal antibody from hybridoma clone 7.4; VH SEQ ID NO:1, VL SEQ ID NO:5 (antibody, V domains shown)
VH: DVKLVESGGGLVKLGGSLKLSCAASGFTFSGYYMSWVRQTPEKRLELVAAINNYGDNTNYPDTVKGRFSVSRDNAKNTLYLEMNSLKSEDTALYYCARLANYANQRGAMDYWGQGTSVTVSS
VL: DIQMTHTTSSLSASLGDRVTISCRASQDIANYLNWYQQKPDGTVTLLIYYTSRLHSGVPSRFSGSGSGTDYSLTINNLDQEDIATYFCQQGYTLPPTFGGGTKLEIK
modifications: Synthetic VH sequence; Synthetic VL sequence
With B1, the “induction of invasiveness induced or not by EGF” value in assay [4] is reported as “inhibited”. In assay [1] (antibody 15 mg/kg every other day, with or without cisplatin 1 mg/kg, PBS 2062±371.5, p=0.054 vs PBS, p=0.0058 vs cisplatin), this molecule registered an A2780 tumor size of 1280±262.0 mm^3. Besides, in assay [5] (15 days, vs PBS), the “tumor size smaller as compared to controls” value came to 2.6 times. Besides, the “tumor growth from D1” value in assay [5] (PBS 24.68±4.05) amounted to 8.22±1.84 fold. Moreover, the “tumor doubling time after 16 days of treatment” value in [5] (control 3.43±0.34) turned out to be 5.11 ± 0.38 days. The LNM-R tumor size entry in assay [2] (antibody 15 mg/kg every other day, with or without cisplatin 1 mg/kg) is reported as “smaller”. For the same molecule, the “day the experiment was stopped because of the large size of the tumors” value in [2] worked out at 25 days. Moreover, in [6], the “size of the tumor and growth rate vs PBS” value is recorded as “not different”. In addition, in assay [7] (24 days), the “MDA-MB231 tumor growth as compared to PBS treated animals” value is “strong reduction”. In addition, the “tumor growth rate from D1” value in assay [7] (PBS 4.4±0.33) came out at 1.5±0.1 fold. Also, the “tumor doubling time after 24 days of treatment” value in assay [7] (control 11.63±1) is 52.8 ± 17.6 days. The “invasive rate of the cells expressing NTS and NTSR1” value in assay [8] is on record as “reduced”. Further, the “tumor sizes, growth rate and doubling time vs PBS” value in assay [9] is recorded as “no difference”. Further, the “R-SI NTSR1 tumor growth rate” value in [3] (combined treatment of NTSp27-7.4 with cisplatin) is “do not change”.
